From article PMC7335169

Target: SAM complex (Sorting and Assembly Machinery complex) from Myceliophthora thermophila: Sam50, Sam35 and Sam37 (Myceliophthora thermophila)
Test: cryo-EM structure; SAM complex in detergent GDN (0.02%), 20 mM HEPES pH 8.0, 150 mM NaCl; monomer and three dimer conformations, 3.0-3.9 Å; the authors call the dimers non-physiological

SAM complex (Sorting and Assembly Machinery complex) from Myceliophthora thermophila: Sam50, Sam35 and Sam37
stoichiometry N: 2
